Results on four substances are retold here after PMC10524254.

Read-outs that look alike come from different tables or passages of the source.

With IgM: N209Q, the localisation_or_trafficking result (N-glycosylation at N209) is recorded as “no change”.
With CD79A: N112Q, under “N-glycosylation at N112”, the localisation_or_trafficking entry was “no change”.
For CD79B: N101Q, the localisation_or_trafficking entry (N-glycosylation at N101) is on record as “no change”.
As to CD79B: N73Q, the localisation_or_trafficking entry (N-glycosylation at N73) was “no change”.
